The text below walks through data of article PMC11413682 (2024).

To fix the notation:
B1: CUL2^ZYG11B (residues 490–728) (domain or fragment)
chain: ELFIVRQLLQIVKQKTNQNSVDTTLKFTLSALWNLTDESPTTCRHFIENQGLELFMRVLESFPTESSIQQKVLGLLNNIAEVQELHSELMWKDFIDHISSLLHSVEVEVSYFAAGIIAHLISRGEQAWTLSRSQRNSLLDDLHSAILKWPTPECEMVAYRSFNPFFPLLGCFTTPGVQLWAVWAMQHVCSKNPSRYCSMLIEEGGLQHLYNIKDHEHTDPHVQQIAVAILDSLEKHIVR

Experiment [1] addresses B1. Nature of the experiment: ITC.
Experiment [2] addresses B1. The experiment can be described thus: ITC. The source holds these as a separate data set.
The target in experiment [3] is SNX11-degron peptide. Nature of the experiment: ITC; pre-formed ZYG11B/ORF10 N5 peptide complex.
The target in experiment [4] is SNX11-degron peptide. Nature of the experiment: ITC.

GYINV [SARS-CoV-2 ORF10 N5 peptide] registered a Ka in experiment [1] of 340000 M⁻¹.

In turn, GY [SARS-CoV-2 ORF10 N2 peptide] gave a Kd in experiment [2] of more than 200 µM.

For B1, the Kd in the experiment with SNX11-degron peptide [3] stood at 5.23 µM; with SNX11-degron peptide [4] it was 400 nM.

GYI [SARS-CoV-2 ORF10 N3 peptide] yielded a Ka in experiment [1] of 69100 M⁻¹.

In experiment [1], GYIN [SARS-CoV-2 ORF10 N4 peptide] returned a Ka of 193000 M⁻¹.
